These are literature values, as cited in paper PMC5580472.

Like-named read-outs stand apart in the source and are kept apart here.

In data set [1] the target is TNF (Homo sapiens) (UniProt P01375).
Data set [2] has the same target. The source holds these as a separate data set.

Chain of TNF (Homo sapiens) (P01375 77-233): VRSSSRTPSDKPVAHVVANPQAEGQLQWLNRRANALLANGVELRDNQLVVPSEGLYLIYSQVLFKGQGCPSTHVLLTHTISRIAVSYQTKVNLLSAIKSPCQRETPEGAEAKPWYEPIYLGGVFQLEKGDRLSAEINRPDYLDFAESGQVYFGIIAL
Chain of TNF receptor 2 (P20333 23-461): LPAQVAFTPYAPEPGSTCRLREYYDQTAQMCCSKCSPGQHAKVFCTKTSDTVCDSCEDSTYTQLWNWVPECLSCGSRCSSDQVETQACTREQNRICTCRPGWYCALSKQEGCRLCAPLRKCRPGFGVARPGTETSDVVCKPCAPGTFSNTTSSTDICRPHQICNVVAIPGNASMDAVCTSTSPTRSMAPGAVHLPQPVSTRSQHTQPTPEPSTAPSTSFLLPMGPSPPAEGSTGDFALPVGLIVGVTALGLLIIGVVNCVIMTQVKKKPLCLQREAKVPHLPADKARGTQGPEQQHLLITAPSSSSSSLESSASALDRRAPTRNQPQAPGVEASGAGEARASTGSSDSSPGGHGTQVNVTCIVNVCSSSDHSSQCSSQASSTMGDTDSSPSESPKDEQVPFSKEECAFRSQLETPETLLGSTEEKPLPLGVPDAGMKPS
Chain of CrmB (P0DSV7 23-349): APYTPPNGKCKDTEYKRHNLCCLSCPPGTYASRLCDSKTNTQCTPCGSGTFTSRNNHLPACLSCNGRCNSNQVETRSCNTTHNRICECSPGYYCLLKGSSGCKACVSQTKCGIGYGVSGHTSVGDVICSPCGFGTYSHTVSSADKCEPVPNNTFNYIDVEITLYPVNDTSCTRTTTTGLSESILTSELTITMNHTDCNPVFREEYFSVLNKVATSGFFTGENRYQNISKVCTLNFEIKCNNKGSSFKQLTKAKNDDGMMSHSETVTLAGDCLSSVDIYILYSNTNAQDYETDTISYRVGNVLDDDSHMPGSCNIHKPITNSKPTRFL

Consider CrmB (from UniProt P0DSV7), for which, in the data set with TNF (Homo sapiens) [1], the Kd is 0.28 nM.

Take TNF receptor 2 (from UniProt P20333): the Kd with TNF (Homo sapiens) [2] is 0.3 nM.
